Source: IntAct's records for PubMed 22056926

B1: Cell division protein ZapB (Escherichia coli (strain K12)), P0AF36 (parent)
chain: MTMSLEVFEKLEAKVQQAIDTITLLQMEIEELKEKNNSLSQEVQNAQHQREELERENNHLKEQQNGWQERLQALLGRMEEV
partner: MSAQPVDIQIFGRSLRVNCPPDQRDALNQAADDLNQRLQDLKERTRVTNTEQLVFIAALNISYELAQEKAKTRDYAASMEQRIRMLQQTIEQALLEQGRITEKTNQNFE

Variants of: B1
Conditions: with zapa_ecoli zapA

Row | effect of a mutation on the interaction | Variant
1 | decreasing interaction strength | S4A;L5A
2 | decreasing interaction strength | F8A;E9A
3 | decreasing interaction strength | K10A;L11A
